Patent publication US20140079753A1, “BMP BINDING PEPTIDES” (Affinergy, LLC, priority 2011, published 2014)
Each block holds one molecule with its values, some of them ahead of it.

Key:
BMP2 = target: T1, BMP2 (Homo sapiens, UniProt P12643); assay: BMP2 binding ELISA of synthetic truncation peptides; design: key: (−) no binding; (+) binding similar to that of full-length SEQ ID NO: 148 binding; (−/+) binding decreased relative to full-length SEQ ID NO: 148 binding; conditions: relative to full-length SEQ ID NO: 148, ELISA
T1 construct: purchased MEDTRONIC, INC
T1 sequence (P12643 283-396): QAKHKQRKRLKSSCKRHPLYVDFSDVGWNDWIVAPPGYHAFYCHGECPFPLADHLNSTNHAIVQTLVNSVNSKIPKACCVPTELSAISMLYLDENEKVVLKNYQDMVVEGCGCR
Procedure: The relative binding affinity of synthetic BMP binding peptides SEQ ID NOs: 54-56 for BMP2 is shown in FIG. 17 (SEQ ID NO: 54 (Peptide 1); SEQ ID NO: 55 (Peptide 2); SEQ ID NO: 56 (Peptide 3)). Briefly, the results shown in FIG. 17 were generated by immobilizing biotinylated BMP binding peptides on streptavidin coated plates. Serial dilutions of 100 nM, 20 nM, 4 nM, 0.8 nM, 0.16 nM, 0.032 nM 0.006 nM, and 0.001 nM of BMP-2 were incubated with the immobilized BMP binding peptides for 60 minutes, washed 5 times, and bound BMP quantified using ELISA using mouse anti-BMP2 antibody and anti-mouse IgG-alkaline phosphatase conjugate. In addition, the specificity of BMP binding peptide binding SEQ ID NO: 54 to various members of the BMP family was performed in a similar manner by titrating BMP2, BMP3, BMP5, BMP6, GDF5, GDF7, TGFb1, TGFb3, and PDGF-BB (see FIG. 18).
(§1) For the truncation analysis, peptides with one or more N or C-terminal deletions of SEQ ID NO: 148 were synthesized and tested for BMP2 binding using an ELISA assay. The truncation peptides are shown in Table 5 below along with the relative BMP2 binding activity that was measured for each of the peptides according to the procedure described herein above. The relative BMP2 binding activity is depicted as follows: (−) no binding; (+) binding similar to that of full-length SEQ ID NO: 148 binding; (−/+) binding decreased relative to full-length SEQ ID NO: 148 binding.

human ASCs (hASCs) = assay: Cell capture by biotinylated peptide on streptavidin plate (CELLTITER GLO); type: cell-based; conditions: 45 min room temperature, cellular ATP, FIG. 15
Procedure: (§2) In this experiment, the ability of biotinylated cell binding peptides SEQ ID NOs: 1 and 2 to capture ASCs and fibroblasts from a single cell suspension onto a solid support was examined. The cell binding peptides were biotinylated as described herein at Example 2. The cell binding peptides and control peptides lacking cell binding activity were added to a 96 well plate containing immobilized streptavidin. After 30 min at room temperature, excess peptide was washed away with PBS+0.1% Tween 20, followed by 2 washes with PBS. Dilutions of single cell suspensions of either human ASCs (hASCs), rabbit ASCs, rat fibroblasts, or human dermal fibroblasts (hDermFib) were added to the peptide coated wells and incubated for 45 min at room temperature with gentle shaking. Wells were washed 3 times with DPBS+2% FBS. The number of attached cells was determined by measuring cellular ATP with CELLTITER GLO reagent from PROMEGA.

rabbit ASCs = assay: as above; type: cell-based; conditions: 45 min room temperature, cellular ATP, FIG. 15
Procedure: as §2

rat fibroblasts = assay: as above; type: cell-based; conditions: 45 min room temperature, cellular ATP, FIG. 15
Procedure: as §2

human ASCs = assay: Flow cytometry binding of biotinylated peptides to cells (Neutravidin-PE); conditions: biotinylated peptide 25 μM, 30 min at 4° C, percent positivity vs Neutravidin-PE alone; data not shown
Source text: (§3) Synthetic biotinylated cell binding peptides SEQ ID NOs: 1 and 2 were examined for their ability to specifically bind ASCs compared to a number of other cells types including bone marrow mesenchymal stem cells (MSCs), dermal fibroblasts, red blood cells, monocytes, lymphocytes granulocytes, and platelets. The cell binding peptides were biotinylated as described herein at Example 2. Cultured cells of each type were either purchased (dermal fibroblasts) or isolated from human bone marrow (MSCs) or human blood. Cells were first harvested with 2 mM EDTA in DPBS and resuspended at 10^6/mL in PBS+2% fetal bovine serum (FBS). An aliquot of cells ([…]) was incubated in 50 μL of peptide solution (25 μM in PBS+FBS) for 30 min at 4° C. Cells were then washed twice in PBS+2% FBS with 300×g centrifugation for 5 min between washes. Fluorescently-tagged neutravidin (Neutravidin-PE from INVITROGEN) was then added to the cells to label biotinylated peptide bound to cells. Neutravidin-PE was diluted 1:250 from stock and applied at 50 μL to cells. Cells were then washed in PBS+FBS, and acquired on a BD FACSARRAY. Peptide reactivity was then measured as percent positivity relative to Neutravidin-PE staining without the addition of biotinylated peptide.

dermal fibroblasts = assay: as above; conditions: biotinylated peptide 25 μM, 30 min at 4° C, percent positivity vs Neutravidin-PE alone; data not shown
Source text: as §3

[1] = tested on: adipose derived stem cells (ASCs); assay: Phage whole cell ELISA for ASC binding; conditions: ranking among SEQ ID NO: 1 mutagenesis variants of Table 2
Procedure: Peptides that bind adipose derived stem cells (ASCs) were identified by phage display biopanning. ASCs were culture amplified from processed liposuction aspirate (<3 passages) (ZEN-BIO, Research Triangle Park, N.C.). After biopanning, individual plaques were picked, grown overnight, and tested for ASC binding activity using whole cell ELISA according to the following procedure. Phage supernatant was incubated for 30 min at room temperature with ASC monolayers established by overnight culture in 96 well plates. Cells were washed four times with Dulbecco's Phosphate Buffered Saline (DPBS) containing 2% FBS, then incubated with 100 μl of horseradish peroxidase conjugated anti-M13 antibody. After 30 minutes at room temperature, cells were washed four times with DPBS containing 2% FBS. M13 antibody binding was detected by the addition of 3,3′,5,5′-Tetramethylbenzidine (TMB). Blue reaction product, indicating positive binding phage, was measured by absorbance at 370 nm in a microplate reader. For the phage displaying ASC binding activity, DNA sequences were analyzed and translated into peptide sequences using Vector NTI DNA Analysis software and are shown below in Table 1.
Mutagenesis of Cell Binding Peptide Sequence SEQ ID NO: 1. A focused phage display library was generated around the cell binding sequence SEQ ID NO: 1 with each nucleotide position varying in identity at a ratio of 70:10:10:10, with the original nucleotide being the dominant form. This is considered a form of “light” mutagenesis, retaining the majority of residue identities with a few amino acid identity changes. The construction of this “degenerate” phage library was performed according to the methods described in Kay et al., 1996. Three rounds of phage display biopanning were performed on ASCs to enrich for positive binding sequences. Phage showing positive binding to ASCs, identified by whole cell ELISA, were re-amplified, retested, and submitted for DNA sequencing to determine the insert amino acid sequences. In FIG. 14 the single letter amino acid sequence of SEQ ID NO: 1 is shown at the top in white letters with black shading. The phage that retained cell binding activity to adipose derived stem cells (ASCs) and fibroblasts are listed below SEQ ID NO: 1 with original amino acids in white with black shading. Amino acid substitutions are shown in black letters with white shading.

[2] = tested on: human dermal fibroblasts (hDermFib); assay: Cell capture by biotinylated peptide on streptavidin plate (CELLTITER GLO); type: cell-based; conditions: 45 min room temperature, cellular ATP, FIG. 15
Procedure: as §2

BMP2 (MEDTRONIC, INC.) = target: T2, BMP2 (MEDTRONIC, INC.) (UniProt P12643 283-396, biotinylated with NHS-biotin (average of one biotin per protein molecule) in the phage ELISA; not biotinylated in the peptide ELISA); assay: ELISA of synthetic truncation peptides on BMP2; legend in paragraph 124: (-) no binding
T2 construct: also called bone morphogenic protein 2
Procedure: as §1

Molecule: SSWHISHDSIGVLIR [SEQ ID NO: 1]
capture of human ASCs (human ASCs (hASCs)): capture human ASCs
capture of rabbit ASCs (rabbit ASCs): to a lesser extent
capture of rat fibroblasts (rat fibroblasts): to a lesser extent
binding to human ASCs (human ASCs): significant binding
binding to dermal fibroblasts (dermal fibroblasts): significant binding

Molecule: 188 (DWIGYSR) [compound 188]
BMP2 binding (BMP2): −

Molecule: 148 (SIWDDWIGYSR) [compound 148]
BMP2 binding (BMP2): +

Molecule: 189 (SIWDDWIGYS) [compound 189]
BMP2 binding (BMP2): +

Molecule: 187 (DDWIGYSR) [compound 187]
BMP2 binding (BMP2): −

Molecule: SFWHVTHDSTGVLIR [SEQ ID NO: 4]
binding affinity for ASCs [1]: highest binding affinity

Molecule: SAFHSSHDSIGVFIN [SEQ ID NO: 21]
binding affinity for ASCs [1]: highest binding affinity

Molecule: SHCVLGHDGRSRCII [SEQ ID NO: 2]
capture of human ASCs (human ASCs (hASCs)): behaved similarly
capture of rabbit ASCs (rabbit ASCs): behaved similarly
capture of human fibroblasts [2]: behaved similarly
capture of rat fibroblasts (rat fibroblasts): without exhibiting significant binding
binding to human ASCs (human ASCs): significant binding
binding to dermal fibroblasts (dermal fibroblasts): significant binding

Molecule: 185 (IWDDWIGYSR) [compound 185]
BMP2 binding (BMP2): −

Molecule: SSWHISHDDIGVFIR [SEQ ID NO: 6]
binding affinity for ASCs [1]: highest binding affinity

Molecule: SSFHISHDNIGVFVR [SEQ ID NO: 9]
binding affinity for ASCs [1]: highest binding affinity

Molecule: SNWTSSHDDIGVFLR [SEQ ID NO: 29]
binding affinity for ASCs [1]: highest binding affinity

Molecule: SNWHITHDSIGVLVR [SEQ ID NO: 3]
binding affinity for ASCs [1]: highest binding affinity

Molecule: 186 (WDDWIGYSR) [compound 186]
BMP2 binding (BMP2): −

The remaining lines, values ahead:

BMP2 binding (BMP2): −
Molecule: 193 (IWDDWIGYS) [compound 193]

BMP2 binding (BMP2): +
Molecule: 190 (SIWDDWIGY) [compound 190]

BMP2 binding (BMP2): −/+
Molecule: 192 (SIWDDWI) [compound 192]

BMP2 binding (BMP2): −
Molecule: 197 (IWDDWI) [compound 197]

BMP2 binding (BMP2): −
Molecule: 194 (IWDDWIGY) [compound 194]

BMP2 binding (BMP2): −
Molecule: 195 (WDDWIGY) [compound 195]

BMP2 binding (BMP2): −/+
Molecule: 191 (SIWDDWIG) [compound 191]

BMP2 binding (BMP2): −
Molecule: 196 (WDDWIG) [compound 196]

binding result (BMP2 (MEDTRONIC, INC.)): no binding
B1: Truncation peptide SEQ ID NO: 187 (peptide)
peptide: DDWIGYSR
modifications: C-terminal GSSGK(biotin) or other spacer group possible; not stated for this assay

binding result (BMP2 (MEDTRONIC, INC.)): no binding
B2: Truncation peptide SEQ ID NO: 194 (peptide)
peptide: IWDDWIGY
modifications: C-terminal GSSGK(biotin) or other spacer group possible; not stated for this assay

binding result (BMP2 (MEDTRONIC, INC.)): no binding
B3: Truncation peptide SEQ ID NO: 185 (peptide)
peptide: IWDDWIGYSR
modifications: C-terminal GSSGK(biotin) or other spacer group possible; not stated for this assay

binding result (BMP2 (MEDTRONIC, INC.)): no binding
B4: Truncation peptide SEQ ID NO: 197 (peptide)
peptide: IWDDWI
modifications: C-terminal GSSGK(biotin) or other spacer group possible; not stated for this assay
notes: also called IWDDWI

binding result (BMP2 (MEDTRONIC, INC.)): no binding
B5: Truncation peptide SEQ ID NO: 196 (peptide)
peptide: WDDWIG
modifications: C-terminal GSSGK(biotin) or other spacer group possible; not stated for this assay
notes: also called WDDWIG

binding result (BMP2 (MEDTRONIC, INC.)): no binding
B6: Truncation peptide SEQ ID NO: 186 (peptide)
peptide: WDDWIGYSR
modifications: C-terminal GSSGK(biotin) or other spacer group possible; not stated for this assay

binding result (BMP2 (MEDTRONIC, INC.)): no binding
B7: Truncation peptide SEQ ID NO: 188 (peptide)
peptide: DWIGYSR
modifications: C-terminal GSSGK(biotin) or other spacer group possible; not stated for this assay
notes: also called DWIGYSR

binding result (BMP2 (MEDTRONIC, INC.)): no binding
B8: Truncation peptide SEQ ID NO: 195 (peptide)
peptide: WDDWIGY
modifications: C-terminal GSSGK(biotin) or other spacer group possible; not stated for this assay
notes: also called WDDWIGY

binding result (BMP2 (MEDTRONIC, INC.)): no binding
B9: Truncation peptide SEQ ID NO: 193 (peptide)
peptide: IWDDWIGYS
modifications: C-terminal GSSGK(biotin) or other spacer group possible; not stated for this assay
